This data set deals with the molecule itself. The experiment in a line: crystal structure.

B1: YisK with C-terminal histidine tag (enzyme, B. subtilis 168, UniProt O06724 1-301, looked up)
chain: MKFATGELYNRMFVGLIIDDEKIMDLQKAEKKLFELETIPGSLIECIAEGDKFVAHARQLAEWAKKPNDELGSFMYSLSEVKLHAPIPKPSKNIICIGKNYRDHAIEMGSEADIPEHPMVFTKSPVTVTGHGDIVKSHEEVTSQLDYEGELAVVIGKSGTRISKEDAYDHVFGYTIVNDITARDLQKRHKQFFIGKSLDTTCPMGPVLVHKSSIQEPERLKVETRVNGELRQSGSASDMIFSIPELIETLSKGMTLEAGDIIATGTPSGVGKGFTPPKFLRSGDKIDITIDPIGTLSNQIG
As to B1, the binding result is reported as “binds”.
